Results: the supplement of paper PMC11246515
± gives the standard deviation of the averaged measurements.

Experiment: total protein half-life in vivo (active degradation + dilution); higher = more stable protein
[1] = E. coli NCM3722 delta-smpB, growth: N-lim chemostat, doubling time 6 h
[2] = wild type E. coli NCM3722, growth: C-lim chemostat, doubling time 3 h
[3] = wild type E. coli NCM3722, growth: C-lim chemostat, doubling time 6 h
[4] = wild type E. coli NCM3722, growth: C-lim chemostat, doubling time 12 h
[5] = wild type E. coli NCM3722, growth: N-lim chemostat, doubling time 12 h
[6] = wild type E. coli NCM3722, growth: P-lim chemostat, doubling time 6 h
[7] = wild type E. coli NCM3722, growth: P-lim chemostat, doubling time 12 h
[8] = E. coli NCM3722 delta-clpP delta-lon delta-hslV, growth: N-lim chemostat, doubling time 6 h
[9] = E. coli NCM3722 delta-clpP, growth: N-lim chemostat, doubling time 6 h
[10] = E. coli NCM3722 delta-hslV, growth: N-lim chemostat, doubling time 6 h
[11] = E. coli NCM3722 delta-lon, growth: N-lim chemostat, doubling time 6 h
[12] = wild type E. coli NCM3722, growth: N-lim chemostat, doubling time 6 h

Substance	total protein half-life in vivo [1]	total protein half-life in vivo [2]	total protein half-life in vivo [3]	total protein half-life in vivo [4]	total protein half-life in vivo [5]	total protein half-life in vivo [6]	total protein half-life in vivo [7]	total protein half-life in vivo [8]	total protein half-life in vivo [9]	total protein half-life in vivo [10]	total protein half-life in vivo [11]	total protein half-life in vivo [12]
MITHFRQAIEETLPWLSSFGADPAGGMTRLLYSPEWLETQQQFKKRMAASGLETRFDEVGNLYGRLNGTEYPQEVVLSGSHIDTVVNGGNLDGQFGALAAWLAIDWLKTQYGAPLRTVEVVAMAEEEGSRFPYVFWGSKNIFGLANPDDVRNICDAKGNSFVDAMKACGFTLPNAPLTPRQDIKAFVELHIEQGCVLESNGQSIGVVNAIVGQRRYTVTLNGESNHAGTTPMGYRRDTVYAFSRICHQSVEKAKRMGDPLVLTFGKVEPRPNTVNVVPGKTTFTIDCRHTDAAVLRDFTQQLENDMRAICDEMDIGIDIDLWMDEEPVPMNKELVATLTELCEREKLNYRVMHSGAGHDAQIFAPRVPTCMIFIPSINGISHNPAERTNITDLAEGVKTLALMLYQLAWQK	2.26 ± 0.15 h	2.76 ± 0.21 h	3.86 ± 0.11 h	7.08 ± 1.6 h	3.88 h	3.54 h	6.32 h	–	–	–	–	–
MNDAIPRPQAKTRKALTPLLEIRNLTKSYDGQHAVDDVSLTIYKGEIFALLGASGCGKSTLLRMLAGFEQPSAGQIMLDGVDLSQVPPYLRPINMMFQSYALFPHMTVEQNIAFGLKQDKLPKAEIASRVNEMLGLVHMQEFAKRKPHQLSGGQRQRVALARSLAKRPKLLLLDEPMGALDKKLRDRMQLEVVDILERVGVTCVMVTHDQEEAMTMAGRIAIMNRGKFVQIGEPEEIYEHPTTRYSAEFIGSVNVFEGVLKERQEDGLVLDSPGLVHPLKVDADASVVDNVPVHVALRPEKIMLCEEPPANGCNFAVGEVIHIAYLGDLSVYHVRLKSGQMISAQLQNAHRHRKGLPTWGDEVRLCWEVDSCVVLTV	5.84 ± 0.35 h	2.93 ± 0.054 h	5.92 ± 0.21 h	11.2 ± 0.37 h	11.5 ± 0.22 h	6.222 ± 0.037 h	11.8 ± 1.3 h	6.49 ± 0.28 h	6.64 ± 0.65 h	5.74 ± 0.33 h	6.22 ± 0.67 h	5.64 ± 0.26 h
P0AGE9	4.28 ± 0.29 h	3.06 ± 0.069 h	5.43 ± 0.12 h	9.89 ± 1.2 h	7.237 ± 0.026 h	5.85 ± 0.2 h	11.9 ± 0.51 h	4.58 ± 0.064 h	4.71 ± 0.71 h	4.68 ± 0.31 h	5.1 ± 0.21 h	4.64 ± 0.056 h
MSQTVHFQGNPVTVANSIPQAGSKAQTFTLVAKDLSDVTLGQFAGKRKVLNIFPSIDTGVCAASVRKFNQLATEIDNTVVLCISADLPFAQSRFCGAEGLNNVITLSTFRNAEFLQAYGVAIADGPLKGLAARAVVVIDENDNVIFSQLVDEITTEPDYEAALAVLKA [P0A862]	4.739 ± 0.047 h	3.16 ± 0.047 h	6.01 ± 0.23 h	10.8 ± 1.2 h	9.45 ± 1.1 h	6.09 ± 0.53 h	13.3 ± 0.69 h	5.35 ± 0.21 h	5.2 ± 0.74 h	5.25 ± 0.47 h	4.96 ± 0.085 h	5.01 ± 0.18 h
MSEMIYGIHAVQALLERAPERFQEVFILKGREDKRLLPLIHALESQGVVIQLANRQYLDEKSDGAVHQGIIARVKPGRQYQENDLPDLIASLDQPFLLILDGVTDPHNLGACLRSADAAGVHAVIVPKDRSAQLNATAKKVACGAAESVPLIRVTNLARTMRMLQEENIWIVGTAGEADHTLYQSKMTGRLALVMGAEGEGMRRLTREHCDELISIPMAGSVSSLNVSVATGICLFEAVRQRS	4.69 ± 0.23 h	2.73 ± 0.46 h	5.83 ± 0.66 h	10.3 ± 0.25 h	9.48 ± 0.31 h	5.37 ± 0.4 h	11.5 ± 0.28 h	5.18 ± 0.29 h	4.81 ± 0.49 h	5.39 ± 0.28 h	5.55 ± 0.52 h	5.17 ± 0.15 h
MTVRVAINGFGRIGRNVVRALYESGRRAEITVVAINELADAAGMAHLLKYDTSHGRFAWEVRQERDQLFVGDDAIRVLHERSLQSLPWRELGVDVVLDCTGVYGSREHGEAHIAAGAKKVLFSHPGSNDLDATVVYGVNQDQLRAEHRIVSNASCTTNCIIPVIKLLDDAYGIESGTVTTIHSAMHDQQVIDAYHPDLRRTRAASQSIIPVDTKLAAGITRFFPQFNDRFEAIAVRVPTINVTAIDLSVTVKKPVKANEVNLLLQKAAQGAFHGIVDYTELPLVSVDFNHDPHSAIVDGTQTRVSGAHLIKTLVWCDNEWGFANRMLDTTLAMATVAFR [P0A9B6]	3.65 ± 0.18 h	2.85 ± 0.086 h	5.08 ± 0.25 h	8.49 ± 0.63 h	5.94 ± 0.99 h	5.48 ± 0.15 h	10 ± 0.75 h	4.55 ± 0.44 h	5.54 ± 2.7 h	4.07 ± 1.2 h	4.77 ± 1.6 h	3.49 ± 0.19 h
MINALGLLEVDGMVAAIDAADAMLKAANVRLLSHEVLDPGRLTLVVEGDLAACRAALDAGCAAAMRTGRVISRKEIGRPDDDTQWLVTGFNRQPKQPVREPDAPVIVAESADELLALLTSVRQGMTAGEVAAHFGWPLEKARNALEQLFSAGTLRKRSSRYRLKPH	–	1.02 ± 0.097 h	–	–	–	–	–	–	–	–	–	–
MSQNLDATAINQIHALISAQGVNEIISKIGADAVALPENFRIHDLEKFNLNRFRFRGALSTASIDDFTRYSKDLADEGTRCFIDADNMRAVSVLNLGTIDEPGHADNTATLKLKKTAPFSALLSVNGERNSQKSLAEWIEDWADYLVGFDANGDAIQATKAAAAIRKITIEANQTADFEDNDFSGKRSLMESVEAKTKDIMPVAFEFKCVPFEGLKERPFKLRLSIITGDRPVLVLRIIQLEAVQEDMANEFRDLLVEKFKDSKVETFIGTFTA	–	2.69 h	5.13 ± 0.22 h	9.79 ± 0.92 h	5.29 h	5.71 ± 0.56 h	15.2 ± 0.98 h	3.03 ± 0.25 h	3.16 h	–	–	–
MSRRNTDAITIHSILDWIEDNLESPLSLEKVSERSGYSKWHLQRMFKKETGHSLGQYIRSRKMTEIAQKLKESNEPILYLAERYGFESQQTLTRTFKNYFDVPPHKYRMTNMQGESRFLHPLNHYNS [P0ACH5]	–	–	–	–	–	–	–	3.42 ± 0.064 h	–	–	> 8 h	–
MMKTVKHLLCCAIAASALISTGVHAASWKDALSSAASELGNQNSTTQEGGWSLASLTNLLSSGNQALSADNMNNAAGILQYCAKQKLASVTDAENIKNQVLEKLGLNSEEQKEDTNYLDGIQGLLKTKDGQQLNLDNIGTTPLAEKVKTKACDLVLKQGLNFIS	2.56 ± 0.057 h	2.22 ± 0.24 h	3.873 ± 0.035 h	3.5 h	–	3.43 h	3.72 ± 0.56 h	2.77 ± 0.018 h	2.37 h	2.68 h	3.02 ± 0.12 h	2.1 h
MALPILLDCDPGHDDAIAIVLALASPELDVKAITSSAGNQTPEKTLRNVLRMLTLLNRTDIPVAGGAVKPLMRELIIADNVHGESGLDGPALPEPTFAPQNCTAVELMAKTLRESAEPVTIVSTGPQTNVALLLNSHPELHSKIARIVIMGGAMGLGNWTPAAEFNIYVDPEAAEIVFQSGIPVVMAGLDVTHKAQIHVEDTERFRAIGNPVSTIVAELLDFFLEYHKDEKWGFVGAPLHDPCTIAWLLKPELFTSVERWVGVETQGKYTQGMTVVDYYYLTGNKPNATVMVDVDRQGFVDLLADRLKFYA	4.236 ± 0.027 h	3.02 ± 0.045 h	5.85 ± 0.58 h	10.5 ± 0.72 h	7.25 ± 0.29 h	5.5168 ± 0.0052 h	11.3 ± 0.33 h	4.982 ± 0.041 h	4.24 ± 0.14 h	4.66 ± 1 h	4.291 ± 0.039 h	4.76 ± 0.19 h
MMVIRPVERSDVSALMQLASKTGGGLTSLPANEATLSARIERAIKTWQGELPKSEQGYVFVLEDSETGTVAGICAIEVAVGLNDPWYNYRVGTLVHASKELNVYNALPTLFLSNDHTGSSELCTLFLDPDWRKEGNGYLLSKSRFMFMAAFRDKFNDKVVAEMRGVIDEHGYSPFWQSLGKRFFSMDFSRADFLCGTGQKAFIAELMPKHPIYTHFLSQEAQDVIGQVHPQTAPARAVLEKEGFRYRNYIDIFDGGPTLECDIDRVRAIRKSRLVEVAEGQPAQGDFPACLVANENYHHFRVVLVRTDPATERLILTAAQLDALKCHAGDRVRLVRLCAEEKTA [P0AE37]	2.78 ± 0.33 h	2.58 ± 0.12 h	4.56 ± 0.31 h	9.68 ± 2.2 h	3.22 ± 0.69 h	4.07 ± 0.25 h	9.08 ± 0.78 h	5.43 ± 0.59 h	2.85 ± 0.19 h	2.96 ± 0.92 h	2.88 ± 0.041 h	2.452 ± 0.0032 h
